Source: US20180362628A1 (KYMAB, published 2018)
Read-outs that look alike come from different tables or passages of the source. No end group written: not given here. *: point of attachment. Biotin = O=C1N[C@H]2[C@H](CS[C@H]2CCCCC(=O)*)N1

Legend:
[1] = molecular target: T1, Peptide #3 (Biotin-SGSGHKKLKQPGDGNPDPNANPN) (N-terminal biotin); test: BLI, biotin-peptide on streptavidin sensor, IgG1 in solution, 25 C
T1 construct: also called Peptide #3 44288
T1 peptide: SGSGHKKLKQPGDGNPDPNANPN

[2] = molecular target: T2, Peptide #4 (Biotin-SGSGNPDPNANP); test: as above
T2 construct: also called Peptide #4 44285
T2 peptide: Biotin-SGSGNPDPNANP

[3] = molecular target: T3, Peptide #5 (Biotin-SGSGDGNPDPNANPNV), original sequence of the alanine scan; test: as above
T3 construct: also called Peptide #5 44289
T3 peptide: Biotin-SGSGDGNPDPNANPNV

[4] = molecular target: T4, Peptide #6 (Biotin-SGSGAGNPDPNANPNV); test: as above
T4 construct: alanine scan variant; also called Peptide #6 44290
T4 peptide: Biotin-SGSGAGNPDPNANPNV

[5] = molecular target: T5, Peptide #7 (Biotin-SGSGDANPDPNANPNV); test: as above
T5 construct: alanine scan variant; also called Peptide #7 44291
T5 peptide: Biotin-SGSGDANPDPNANPNV

[6] = molecular target: T6, Peptide #8 (Biotin-SGSGDGAPDPNANPNV); test: as above
T6 construct: alanine scan variant; also called Peptide #8 44292
T6 peptide: Biotin-SGSGDGAPDPNANPNV

[7] = molecular target: T7, Peptide #9 (Biotin-SGSGDGNADPNANPNV); test: as above
T7 construct: alanine scan variant; also called Peptide #9 44293
T7 peptide: Biotin-SGSGDGNADPNANPNV

[8] = molecular target: T8, Peptide #10 (Biotin-SGSGDGNPAPNANPNV); test: as above
T8 construct: alanine scan variant; also called Peptide #10 44294
T8 peptide: Biotin-SGSGDGNPAPNANPNV

[9] = molecular target: T9, Peptide #11 (Biotin-SGSGDGNPDANANPNV); test: as above
T9 construct: alanine scan variant; also called Peptide #11 44295
T9 peptide: Biotin-SGSGDGNPDANANPNV

[10] = molecular target: T10, Peptide #12 (Biotin-SGSGDGNPDPAANPNV); test: as above
T10 construct: alanine scan variant; also called Peptide #12 44296
T10 peptide: Biotin-SGSGDGNPDPAANPNV

[11] = molecular target: T11, Peptide #13 (Biotin-SGSGDGNPDPNKNPNV); test: as above
T11 construct: scan variant, alanine replaced by lysine; also called Peptide #13 44297
T11 peptide: Biotin-SGSGDGNPDPNKNPNV

[12] = molecular target: T12, Peptide #14 (Biotin-SGSGDGNPDPNAAPNV); test: as above
T12 construct: alanine scan variant; also called Peptide #14 44298
T12 peptide: Biotin-SGSGDGNPDPNAAPNV

[13] = molecular target: T13, Peptide #15 (Biotin-SGSGDGNPDPNANANV); test: as above
T13 construct: alanine scan variant; also called Peptide #15 44299
T13 peptide: Biotin-SGSGDGNPDPNANANV

[14] = molecular target: T14, Peptide #16 (Biotin-SGSGDGNPDPNANPAV); test: as above
T14 construct: alanine scan variant; also called Peptide #16 44300
T14 peptide: Biotin-SGSGDGNPDPNANPAV

[15] = molecular target: T15, Peptide #17 (Biotin-SGSGDGNPDPNANPNA); test: as above
T15 construct: alanine scan variant; also called Peptide #17 44301
T15 peptide: Biotin-SGSGDGNPDPNANPNA

[16] = molecular target: T16, Peptide #1 (Biotin-SGSGKPKHKKLKQPGDGNPDPNANP) (N-terminal biotin); test: as above
T16 construct: also called Peptide #1 44286
T16 peptide: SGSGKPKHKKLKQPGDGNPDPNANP

[17] = molecular target: T17, biotinylated rCSP (biotin/rCSP, Example 3) (Plasmodium falciparum strain 3D7, UniProt P02893 19-389, biotinylated (sites not given)); test: BLI (Octet), biotin-rCSP on streptavidin sensor, antibody in solution
T17 construct: also called biotin/Pf CSP
T17 chain: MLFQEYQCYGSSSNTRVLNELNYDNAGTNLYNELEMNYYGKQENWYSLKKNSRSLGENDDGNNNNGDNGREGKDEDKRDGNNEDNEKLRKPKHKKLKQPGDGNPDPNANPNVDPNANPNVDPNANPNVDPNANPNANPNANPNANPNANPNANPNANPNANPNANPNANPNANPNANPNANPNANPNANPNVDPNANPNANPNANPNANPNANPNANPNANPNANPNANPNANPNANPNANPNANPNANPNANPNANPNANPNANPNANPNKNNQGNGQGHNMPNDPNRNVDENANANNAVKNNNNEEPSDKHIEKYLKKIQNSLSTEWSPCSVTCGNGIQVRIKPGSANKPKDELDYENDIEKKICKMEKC

[18] = molecular target: T17, biotinylated rCSP (biotin/rCSP, Example …); test: as above
[19] = molecular target: T18, Recombinant CSP (Wellcome Trust Sanger Institute, FIG. 22), CSP ectodomain with BirA biotinylation tag, … (Plasmodium falciparum strain 3D7, UniProt Q7K740 19-376, biotinylated at the BirA substrate peptide); test: SPR, IgG1 captured, CSP as analyte, 40 C; apparent affinity (avidity)
T18 construct: extracellular domain; Expressed in HEK293, 45 kDa; order of the tags is that of the legend, not confirmed; also called biotinylated recombinant CSP

[20] = molecular target: T1, Peptide #3 …; test: BLI, biotin-peptide on streptavidin sensor, IgG1 in solution, 25 C
[21] = molecular target: T2, Peptide #4 (Biotin-SGSGNPDPNANP); test: as above
[22] = molecular target: T3, Peptide #5 (Biotin-SGSGDGNPDPNANPNV), …; test: as above
[23] = molecular target: T4, Peptide #6 (Biotin-SGSGAGNPDPNANPNV); test: as above
[24] = molecular target: T5, Peptide #7 (Biotin-SGSGDANPDPNANPNV); test: as above
[25] = molecular target: T6, Peptide #8 (Biotin-SGSGDGAPDPNANPNV); test: as above
[26] = molecular target: T7, Peptide #9 (Biotin-SGSGDGNADPNANPNV); test: as above
[27] = molecular target: T8, Peptide #10 (Biotin-SGSGDGNPAPNANPNV); test: as above
[28] = molecular target: T9, Peptide #11 (Biotin-SGSGDGNPDANANPNV); test: as above
[29] = molecular target: T10, Peptide #12 (Biotin-SGSGDGNPDPAANPNV); test: as above
[30] = molecular target: T12, Peptide #14 (Biotin-SGSGDGNPDPNAAPNV); test: as above
[31] = molecular target: T13, Peptide #15 (Biotin-SGSGDGNPDPNANANV); test: as above
[32] = molecular target: T14, Peptide #16 (Biotin-SGSGDGNPDPNANPAV); test: as above
[33] = molecular target: T15, Peptide #17 (Biotin-SGSGDGNPDPNANPNA); test: as above
[34] = molecular target: T16, Peptide #1 …; test: as above

B1: Antibody 668, human IgG1 (antibody, V domains shown)
VH: QVQLVQSGAEVKKPGASVKVSCKASGFTFTDYAMHWVRQAPGQRLEWMGWINAGNGYTKYSQKFQDRLTITRDTFASTVYMELSSLRSEDTTVYYCARDGFCPSNTCSGYYGMDVWGQGTTVTVSS
VL: QSALTQPASVSGSPGQSITISCTGTSSDVGSYNYVSWYQQHPGKAPKLMIYDVNTRPSGVSIRFSASKSGNTASLTVSGLQAEDEAVYYCSSYAGSSTWVFGGGTKLTVL
notes: human IgG1 with human lambda light chain constant region; HEK293 product; also called AB-000668; Ab668
[1]
  Response (nm): 6.34 nm
[2]
  Response (nm): 4.69 nm
[3]
  Response (nm): 4.71 nm
[4]
  Response (nm): 4.9 nm
[5]
  Response (nm): 4.88 nm
[6]
  Response (nm): 4.86 nm
[7]
  Response (nm): 4.72 nm
[8]
  Response (nm): 5.82 nm
[9]
  Response (nm): 6.01 nm
[10]
  Response (nm): 4.74 nm
[11]
  binding result: no binding (tested: LOD 0.170 nm)
[12]
  Response (nm): 0.597 nm
[13]
  Response (nm): 5.69 nm
[14]
  Response (nm): 4.72 nm
[15]
  Response (nm): 4.86 nm
[16]
  Response (nm): 6.47 nm
[17]
  Kd: 0.57 nM
[18]
  Kd: 0.57 nM
  koff: 7.1e-05 s⁻¹
  kon: 125000 M⁻¹ s⁻¹
[19]
  Kd: 0.05 nM
  koff: 2.47e-05 s⁻¹
  kon: 540000 M⁻¹ s⁻¹

B2: Antibody 667, human IgG1 (antibody, V domains shown)
VH: QVQLVQSGAEVKKPGASVKVSCRASGYTFTNYAMHWVRQAPGQRLEWMGWINAGNGYTKYSQKFQDRVTITRDTSATTAYMELSSLRSEDTAMYYCARDSFYDILSGPVYHYYGMDVWGQGTTVTVSS
VL: QSALTQPDSVSGSPGQSITISCTGTSNDVGIYNHVSWYQQHPGKAPKLMIYDVNKRPSGISNRFSGSKSGDTASLTISGLQAEDEADYYCCSYAGSSAWVFGGGTKLTVL
notes: human IgG1 with human lambda light chain constant region; also called AB-000667; Ab667
[20]
  Response (nm): 0.814 nm
[21]
  Response (nm): 0.163 nm
[22]
  Response (nm): 0.635 nm
[23]
  Response (nm): 0.907 nm
[24]
  Response (nm): 0.951 nm
[25]
  Response (nm): 0.692 nm
[26]
  Response (nm): 0.696 nm
[27]
  Response (nm): 3.22 nm
[28]
  Response (nm): 0.0953 nm
[29]
  Response (nm): 0.0529 nm
[30]
  Response (nm): -0.0141 nm
[31]
  Response (nm): 0.213 nm
[32]
  Response (nm): 0.651 nm
[33]
  Response (nm): 1.09 nm
[34]
  Response (nm): 0.645 nm
[17]
  Kd: 0.34 nM
[18]
  Kd: 0.341 nM
  koff: 5.67e-05 s⁻¹
  kon: 166000 M⁻¹ s⁻¹
[19]
  Kd: 0.31 nM
  koff: 6.46e-05 s⁻¹
  kon: 215000 M⁻¹ s⁻¹
